Measured values taken from doi:10.1101/2025.09.11.675134, “Biodistribution-Driven Discovery Identifies a Glycosidase-Cleavable Linker to Reprogram Radiotheranostics” (bioRxiv, 2025).
Like-named read-outs stand apart in the source and are kept apart here.

Assay: Ex vivo biodistribution of 86Y-labeled variants in AR42J tumor-bearing mice
Details: athymic nude, mouse, iv, 1 ug, total radioactivity, mean; for tissue uptake at 1 h: 1 h post-injection; for tissue uptake at 4 h: 4 h post-injection; for tissue uptake at 24 h: 24 h post-injection
Procedure: To independently confirm these observations, ex vivo biodistribution studies were conducted using the same ^86Y-labeled compounds at matched timepoints (Fig. S16; Table S3). […]
For studies involving three variants (DOTA -TATE, DOTA-MVK(ε)-TATE, and DOTA-β-Gal-TATE), AR42J cells (5 × 10^6 cells per mouse) were subcutaneously inoculated into the right shoulder of the mice. Tumors were allowed to grow for 3 weeks, reaching a volume of 100 –200 mm³ before being used in subsequent experiments. For biodistribution or PET imaging studies, mice bearing subcutaneous AR42J tumors were administered 1.4 – 1.8 MBq (1 μg) of 111In-labeled DOTA-TATE variants or 2.7 – 4.9 MBq (1 μg) of 86Y-labeled DOTA-TATE variants via tail vein injection. Biodistribution studies with 111In-labeled DOTA -TATE variants were performed 1 hour post -injection (n = 3 per cohort), while studies with 86Y-labeled DOTA-TATE variants were conducted at 1, 4, and 24 hours post -injection (n = 3 per cohort). Mice were euthanized by CO2 asphyxiation, and 10 tissues, including tumors, were collected. All samples were weighed and counted on a gamma counter (2480 Wizard 3, Perkin Elmer Inc., Waltham, MA, USA). Results are presented as percentage of injected activity per gram (%IA/g) and mean values ± standard deviations. […]

[1] = blood, ex vivo, n = 3, read-out: Blood uptake
[2] = femur, ex vivo, n = 3, read-out: Femur uptake
[3] = heart, ex vivo, n = 3, read-out: Heart uptake
[4] = intestine, ex vivo, n = 3, read-out: Intestine uptake
[5] = ex vivo, n = 3, read-out: Tumor uptake
[6] = kidney, ex vivo, n = 3, read-out: Kidney uptake
[7] = liver, ex vivo, n = 3, read-out: Liver uptake
[8] = lung, ex vivo, n = 3, read-out: Lung uptake
[9] = muscle, ex vivo, n = 3, read-out: Muscle uptake
[10] = spleen, ex vivo, n = 3, read-out: Spleen uptake

**Q.** Which results are given for `C[C@@H](O)[C@H](NC(=O)[C@@H]1CSSC[C@H](NC(=O)[C@@H](Cc2ccccc2)NC(=O)CN2CCN(CC(=O)O)CCN(CC(=O)O)CCN(CC(=O)O)CC2)C(=O)N[C@@H](Cc2ccc(O)cc2)C(=O)N[C@H](Cc2c[nH]c3ccccc23)C(=O)N[C@@H](CCCCN)C(=O)N[C@@H]([C@@H](C)O)C(=O)N1)C(=O)O` [^86Y-DOTA-TATE, metal not drawn, reference compound]?
**A.** tissue uptake at 1 h (blood, i.v. 1 μg (2.7–4.9 MBq), ex vivo gamma counting, n = 3, read-out: Blood uptake): 0.22 %ID/g; tissue uptake at 4 h [1]: 0.14 %ID/g; tissue uptake at 24 h [1]: 0.03 %ID/g; tissue uptake at 1 h [2]: 0.47 %ID/g; tissue uptake at 4 h [2]: 0.35 %ID/g; tissue uptake at 24 h [2]: 0.2 %ID/g; tissue uptake at 1 h [3]: 0.37 %ID/g; tissue uptake at 4 h [3]: 0.25 %ID/g; tissue uptake at 24 h [3]: 0.09 %ID/g; tissue uptake at 1 h [4]: 0.37 %ID/g; tissue uptake at 4 h [4]: 0.51 %ID/g; tissue uptake at 24 h [4]: 0.05 %ID/g; tissue uptake at 1 h [5]: 5.98 %ID/g; tissue uptake at 4 h [5]: 4.83 %ID/g; tissue uptake at 24 h [5]: 3.48 %ID/g; tissue uptake at 1 h [6]: 9.29 %ID/g; tissue uptake at 4 h [6]: 6.61 %ID/g; tissue uptake at 24 h [6]: 3.74 %ID/g; tissue uptake at 1 h [7]: 0.29 %ID/g; tissue uptake at 4 h [7]: 0.25 %ID/g; tissue uptake at 24 h [7]: 0.15 %ID/g; tissue uptake at 1 h [8]: 0.83 %ID/g; tissue uptake at 4 h [8]: 0.34 %ID/g; tissue uptake at 24 h [8]: 0.13 %ID/g; tissue uptake at 1 h [9]: 0.44 %ID/g; tissue uptake at 4 h [9]: 0.38 %ID/g; tissue uptake at 24 h [9]: 0.1 %ID/g; tissue uptake at 1 h [10]: 0.4 %ID/g; tissue uptake at 4 h [10]: 0.25 %ID/g; tissue uptake at 24 h [10]: 0.15 %ID/g
